Assays:
[1] = biological target: TRCF-β (β domain of Thermus thermophilus HB8 transcription-repair coupling factor, His-tagged) (Thermus thermophilus HB8); assay: SPR (BIAcore), His-tagged β domain immobilised on Ni-NTA sensor chip, UvrA injected, without ATP (- ATP)
[2] = biological target: TRCF-β (β domain of Thermus thermophilus HB8 transcription-repair coupling factor, His-tagged) (Thermus thermophilus HB8); assay: SPR (BIAcore), His-tagged β domain immobilised on Ni-NTA sensor chip, UvrA injected, with ATP (+ ATP)
UvrA [3] = assay: SPR (BIAcore), His-tagged β domain immobilised on Ni-NTA sensor chip, UvrA in solution, with ATP
UvrA [4] = assay: SPR (BIAcore), His-tagged β domain immobilised on Ni-NTA sensor chip, UvrA in solution, without ATP

Sequence of UvrA (enzyme) (Q56242 whole entry): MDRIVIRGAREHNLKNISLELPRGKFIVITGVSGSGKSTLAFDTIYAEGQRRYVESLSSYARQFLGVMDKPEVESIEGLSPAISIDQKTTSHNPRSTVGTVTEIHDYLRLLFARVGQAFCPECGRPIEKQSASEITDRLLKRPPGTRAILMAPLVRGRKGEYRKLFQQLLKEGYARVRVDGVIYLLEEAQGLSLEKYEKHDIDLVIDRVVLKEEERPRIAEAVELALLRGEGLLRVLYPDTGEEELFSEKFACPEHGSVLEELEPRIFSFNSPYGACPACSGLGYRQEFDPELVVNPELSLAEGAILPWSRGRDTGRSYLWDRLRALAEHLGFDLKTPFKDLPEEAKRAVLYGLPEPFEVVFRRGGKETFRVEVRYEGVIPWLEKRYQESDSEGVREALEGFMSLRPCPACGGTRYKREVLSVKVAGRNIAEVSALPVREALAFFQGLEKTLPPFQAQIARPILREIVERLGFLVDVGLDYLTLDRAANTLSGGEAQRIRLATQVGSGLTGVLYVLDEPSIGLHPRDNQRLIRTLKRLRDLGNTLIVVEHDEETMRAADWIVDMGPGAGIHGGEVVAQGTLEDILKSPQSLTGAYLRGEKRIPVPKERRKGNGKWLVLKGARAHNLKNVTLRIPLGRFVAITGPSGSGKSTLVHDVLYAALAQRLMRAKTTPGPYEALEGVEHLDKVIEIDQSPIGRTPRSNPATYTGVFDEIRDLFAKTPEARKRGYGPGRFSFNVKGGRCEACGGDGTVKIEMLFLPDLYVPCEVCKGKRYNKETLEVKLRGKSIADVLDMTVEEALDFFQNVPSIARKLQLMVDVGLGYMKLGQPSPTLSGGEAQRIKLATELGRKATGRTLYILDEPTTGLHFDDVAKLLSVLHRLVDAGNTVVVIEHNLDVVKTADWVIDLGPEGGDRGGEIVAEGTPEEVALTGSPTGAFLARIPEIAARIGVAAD
Sequence of UvrA (Q56242 whole entry): as above

Substance	koff [1] [s⁻¹]	kon [1] [M⁻¹ s⁻¹]	koff [2] [s⁻¹]	kon [2] [M⁻¹ s⁻¹]	Kd (UvrA [3]) [µM]	Kd (UvrA [4]) [µM]
UvrA (enzyme)	0.13	100000	0.07	150000		
TRCF-β (β domain of Thermus thermophilus HB8 transcription-repair coupling factor, His-tagged) (enzyme)					0.5	1.3
